Measured values published in patent publication US9217139B2, “Extracellularly secreted nuclease” (JAPAN AGENCY FOR MARINE-EARTH SCIENCE AND TECHNOLOGY, priority 2010, dated 2015).

Legend:
[1] = phosphatase activity test; assay type: biochemical; conditions: 100 mM Tris/HCl pH 8.5, 1 mM MgCl2, 1 mM CaCl2, 1 percent glycerol, 25 degrees Celsius
Experimental: (§1) Bis(p-nitrophenyl)phosphate and p-nitrophenylphosphate were used as substrate. The method of Tomoyeda et al. (referring to Archives of biochemistry and biophysics. 131(1), 191-202, 1969; the contents of the document are incorporated herein by reference) was used. In 100 mM of Tris/HCl at pH 8.5 that contained 1 mM of MgCl2, 1 mM of CaCl2, and 1 percent of glycerol, with the use of a reaction solution that contained 0.2 percent of the above substrate, the phosphodiesterase activity and phosphatase activity of both enzymes were measured at 25 degrees Celsius.

[2] = system: RNA (mRNA derived from yeast); experiment: degrading activity for RNA; assay type: biochemical
[3] = system: Deoxyribonucleic acid sodium salt from salmon testes; experiment: effects of pH on enzyme activity; assay type: biochemical; conditions: 25 degrees Celsius, 15 minutes, 1 mM MgCl2, 1 mM CaCl2
Experimental: At each level of pH, the nucleic-acid degradation activity was measured at 25 degrees Celsius for 15 minutes by using, as substrate, Deoxyribonucleic acid sodium salt from salmon testes 0.4 mg/mL (manufactured by Sigma-Aldrich; Cat no. D1626-1G) in 20 mM of the following solution containing 1 mM of MgCl2 and 1 mM of CaCl2: 2-morpholino ethanesulfonic acid; monohydrate/NaOH(MES, pH 5.5 to 7.0); 3-morpholino propanesulfonic acid/NaOH (MOPS, pH 7 to 8); N-tris(hydroxymethyl)methyl-3-aminopropanesulfonic acid/NaOH (TAPS, pH 8 to 9); N-cyclohexyl-2-aminoethanesulfonic acid/NaOH (CHES, pH 9 to 9.5); or N-cyclohexyl-3-aminopropanesulfonic acid/NaOH (CAPS, 9.5 to 10).

[4] = thermal stability test (residual activity); assay type: biochemical; conditions: heat treatment 30 minutes, 20 mM Tris/HCl pH 8.5, 1 mM MgCl2, 1 mM CaCl2; ice bath = 100 percent
Experimental: After heat treatment was conducted for 30 minutes at each temperature in 20 mM of Tris/HCl at pH 8.5 that contained 1 mM of MgCl2 and 1 mM of CaCl2, the residual activity was measured (referring to FIG. 6). An activity of an enzyme stored in an ice bath was regarded as 100 percent.

[5] = system: circular DNA (pUC18 plasmid); experiment: reaction styles in initial stage of degradation of circular DNA; assay type: biochemical
Experimental: According to the standard specific activity measurement method, reaction styles in an initial stage of degradation reaction for circular DNA (pUC18 plasmid) of NucS and NucL were analyzed (referring to FIGS. 14 and 15). […] The degradation of circular plasmid DNA executed by the single strand-specific nucleolytic enzyme is considered to proceed as the molecular weight degreases due to accumulation of endo-type cleavage of single strands.

[6] = phosphodiesterase activity test; assay type: biochemical; conditions: 100 mM Tris/HCl pH 8.5, 1 mM MgCl2, 1 mM CaCl2, 1 percent glycerol, 25 degrees Celsius
Experimental: as §1

[7] = system: Circular plasmid DNA (pUC 18); experiment: degradation of circular plasmid DNA (agarose gel electrophoresis); assay type: biochemical; conditions: single enzyme, 25 degrees Celsius, 15 minutes; NucL level up to 0.5 U
Experimental: Circular plasmid DNA (pUC 18) that had been purified by using a plasmid purification kit (HiSpeed (Registered Trademark) Plasmid Midi Kit; manufactured by QIAGEN, Cat no. 12643) was used as substrate to analyze nucleic-acid degradation styles of NucS and NucL. According to the standard specific activity measurement method, the enzyme solutions that were different in enzyme level as shown in the table below were added to a plasmid solution (about 2 to 10 μg). Then, a nucleic-acid degradation reaction was carried out at 25 degrees Celsius for 15 minutes. After the degradation, a reaction solution was subjected to a 1-percent agarose gel electrophoresis, and the degradation manner of the degraded DNA was analyzed.
Next, the enzyme level of NucL was increased to 0.5 U, and a test was conducted to examine if the plasmid could be completely degraded (referring to FIG. 13).

[8] = system: Deoxyribonucleic acid sodium salt from salmon testes; experiment: effects of monovalent salt on enzyme activity; assay type: biochemical; conditions: 10 mM Tris/HCl pH 8.5, 1 mM MgCl2, 25 degrees Celsius
Experimental: Effects of monovalent salt on NucS and NucL were examined. At each concentration level of NaCl, the nucleic-acid degradation activity was measured at 25 degrees Celsius for 15 minutes by using, as substrate, Deoxyribonucleic acid sodium salt from salmon testes 0.4 mg/mL (manufactured by Sigma-Aldrich; Cat no. D1626-1G) in 10 mM of Tris/HCl at pH 8.5 that contained 1 mM of MgCl2 and 0 to 1,000 mM of NaCl. […] Substantially similar results were obtained even in the case of using KCl (referring to FIG. 8).

[9] = isoelectric point by Novex IEF pH-3-10 gel; assay type: physicochemical
Experimental: The molecular weight was measured by gel filtration chromatography with the use of Superdex G75 (manufactured by GE Healthcare). An elution position corresponding to a molecular weight of about 16 kDa was confirmed as a peak top from a column. Since the value was much coincident with a molecular weight (about 17 to 21 kDa) of an enzyme produced on SDS-PAGE, it can be determined that NucS exists as monomer. The isoelectric point was measured by using Novex (Registered Trademark) IEF pH-3-10 gel (manufactured by Invitrogen); and pl was 10.
The specific activity of NucL was 5.6×10^4 U/mg-protein at 37 degrees Celsius in 20 mM of Tris/HCl at pH 8.5 that contains 1 mM of MgCl2 and 1 mM of CaCl2. The isoelectric point was measured by using Novex (Registered Trademark) IEF pH-3-10 gel (manufactured by Invitrogen); and then pl was 7.0. Then, it was determined that a N-terminal amino acid sequence of the purified enzyme was DSVRIHDIQGTTR. The sequence matched 12 out of 13 amino acids of putative protein (putative secreted hydrolase) coded on a genome of Streptomyces scabiei 87.22, and of putative protein (large secreted protein) coded on a genome of S. avermitilis MA-4680.

[10] = system: salmon DNA (double-stranded DNA) and thermally-denatured DNA (single-stranded DNA); experiment: reactivity test for single-stranded and double-stranded DNA; assay type: biochemical; conditions: 15-minute standard specific activity measurement method
Experimental: With the use of a 15-minute standard specific activity measurement method, the reactivity of each enzyme was tested for salmon DNA (double-stranded DNA) that was dissolved at low temperatures, as well as for the same DNA (single-stranded DNA) that had been subjected to thermal denaturation at 95 degrees Celsius for 10 minutes. […] That is, it can be said that NucL is an enzyme that efficiently works on single-stranded DNA.

B1: NucL: nucleolytic enzyme of about 66.5 kDa secreted by Streptomyces sp. MBE174; SEQ ID NO. 4 (protein)
chain: MASQSVTRLAALTVAATCSAASVVVLGPPAHADSVRIHDIQGTTRISPYAGRQVADVPGVVTGVRDHGSSRGFWFQDPRPDDDPATSEGVFVFTGSAPGVEAGDAVTVSGTVSEFVPGGTASGNQSLTEITRPTVTVVSRGNPVPDPVVVSARSVPHAYAPAGDAAANGSVNALPLRPDRYALDYYESLEGMNVQVADARVVGATDPYTELWVTVKPGENASPRGGTVYGSRDAQNTGRLQIQTLGVPAGFPAADVGDTLAGATTGPLDYNQFGGYTLVARSLGTLTAGGLARETTREQHRDELSVATYNVENLDPSDGTFAAHAEAIVRNLRSPDIVSLEEIQDDNGATDDGTVTAGVTVGKLIDAVVAAGGPRYDWRSVDPVDKADGGQPGGNIRQVFLFDPRRVSFADRPGGDAVTATGVVKVRGKAALTHSPGRVDPANPAWLNSRKPLAGEFSFRGRTVFVIANHFASKGGDQGLTSQYQPPARSSETQRHLQATAVNTFVKQILAVQKNADVIALGDINDFEFSGTTERLEAGGALWSAVRSLPPGERYSYVYQGNSQVLDQILVSPSIRRGHLSYDSVHINAEFHDQISDHDPQVLRYRP
modifications: Streptmyces sp. MBE174
For B1, the phosphatase activity [1] was “has”, the RNA degrading activity [2] was “did not show RNA degrading activity” and the “optimum reaction pH” value [3] was “around 8.8”. For the same molecule, the “temperature until which the enzyme remained stable” value [4] was no more than 35 degrees Celsius, the “reaction style in initial stage of degradation of circular DNA” value [5] was “reaction pattern similar to a single strand-specific, endo-type nucleolytic enzyme” and the phosphodiesterase activity [6] was “has”. The “degradation of circular plasmid DNA, supercoiled or relaxed type” value [7] was “could completely degrade the plasmids”, the “NaCl concentration up to which the enzyme remained active” value [8] was “up to 1,000 mM” and the “isoelectric point (pl)” value [9] was 7.0. The “efficiency of degrading thermally-denatured DNA compared with native DNA” value [10] was “about five times higher”.

B2: NucS: low-molecular-weight nucleolytic enzyme, about 17 to 21 kDa, secreted by Streptomyces sp. MBE174; SEQ ID NO. 3 (protein)
chain: MPKLYARRRFAVLAALTGLIASAGLFHGPAASAALPTPVSAATARGYLASLKVAPENRTGYKRDLFPHWITQSGTCNTRETVLKRDGTNVVTDAACAATSGSWYSPFDGATWTAASDVDIDHLVPLAEAWDSGASAWTTAQRQAFANDLTRPQLLAVTDTVNQSKGDKDPAEWMPPRAAYHCTYVRAWVQVKYYYGLSVDTAEKTALTNRLAGC
modifications: Streptmyces sp. MBE174
For B2, the phosphatase activity [1] was “does not have”, the RNA degrading activity [2] was “showed RNA degrading activity” and the “optimum reaction pH” value [3] was “around 8.5”. For the same molecule, the “temperature until which the enzyme remained stable” value [4] was no more than 45 degrees Celsius, the “reaction style in initial stage of degradation of circular DNA” value [5] was “degradation activity of an endo-type style” and the phosphodiesterase activity [6] was “does not have”. The “degradation of circular plasmid DNA, supercoiled or relaxed type” value [7] was “could completely degrade the plasmids”, the “activity in dependence on NaCl concentration” value ([8]; 0 to 1,000 mM NaCl) was “high when the concentration of NaCl was low” and the “isoelectric point (pl)” value [9] was 10. The “efficiency of degrading thermally-denatured DNA compared with native DNA” value [10] was “at the same level of efficiency”.
